This assay addresses T1, NPAS4 170X-Myc/FLAG (c.508C>T nonsense variant) (human, UniProt Q8IUM7-1 1-169).
T1 sequence (looked up): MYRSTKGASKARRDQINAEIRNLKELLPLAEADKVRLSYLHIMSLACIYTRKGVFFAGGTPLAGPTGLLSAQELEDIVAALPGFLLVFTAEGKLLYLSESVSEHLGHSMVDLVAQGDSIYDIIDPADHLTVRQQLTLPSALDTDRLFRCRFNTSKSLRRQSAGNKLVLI
As to the kind of experiment: cell-based or functional assay.

B1: ARNT2-Strep (natural protein)
chain: not shown
For B1, the “6xCME firefly luciferase reporter gene activity in HEK293T (dual luciferase; ARNT2-FLAG as partner; printed for ARNT and ARNT2 alike)” value is > 200 fold decrease relative to wildtype.

Source of the values: article PMC7987981, “Molecular characterisation of rare loss-of-function NPAS3 and NPAS4 variants identified in individuals with neurodevelopmental disorders” (Scientific Reports, 2021).
